The values that follow come from patent publication US12397036B2, “Peptide exchange protein” (Cambridge Enterprise Limited, priority 2018, dated 2025).

The subject of this series is EL4 tumour cells. Put plainly: OT1 T cell killing of EL4 tumour cells. Format: cell-based, murine. Conditions: 1 μM TAPBPR, 1 nM SIINFEKL
As for the experimental part: Histograms are representative of three independent experiments. (19d) Bar graphs show the MFI of 25-D1.16−/+SD from three independent experiments. (19e) OT1 killing of EL4 cells treated −/+1 μM soluble TAPBPR^WT or TAPBPR^TN5, followed by incubation with 1 nM […] peptide. Error bars−/+s.e.m from triplicate wells. Data is representative of three independent experiments. Note: surface expressed H-2K^b are relatively more peptide receptive compared to human MHC I molecules. […] As OT1 T cells are highly efficient cytotoxic cells, killing 80-100% of targets after 1-4 hours, we decreased the concentration of […] used in these experiments to 1 nM in order to differentiate between TAPBPR-mediated and background peptide binding, otherwise we would not observe an additive effect of soluble TAPBPR on target cell killing.
Although the results above provide indication that soluble TAPBPR could be utilised to decorate target cells with immunogenic peptides and enhance T cell responses against tumours, we next determined whether this could result in enhanced killing of tumour cells. We assessed killing of murine EL4 tumour cells by OT1 T cells in the presence of human TAPBPR and very low concentrations of […] peptide.

B1: soluble TAPBPR^WT: secreted His-tagged luminal domain of human TAPBPR, lacking transmembrane domain and cytoplasmic tail; SEQ ID NO: 2 (protein)
chain: KPHPAEGQWRAVDVVLDCFLVKDGAHRGALASSEDRARASLVLKQVPVLDDGSLEDFTDFQGGTLAQDDPPIIFEASVDLVQIPQAEALLHADCSGKEVTCEISRYFLQMTETTVKTAAWFMANVQVSGGGPSISLVMKTPRVAKNEVLWHPTLNLPLSPQGTVRTAVEFQVMTQTQSLSFLLGSSASLDCGFSMAPGLDLISVEWRLQHKGRGQLVYSWTAGQGQAVRKGATLEPAQLGMARDASLTLPGLTIQDEGTYICQITTSLYRAQQIIQLNIQASPKVRLSLANEALLPTLICDIAGYYPLDVVVTWTREELGGSPAQVSGASFSSLRQSVAGTYSISSSLTAEPGSAGATYTCQVTHISLEEPLGASTQVVPPERR
modifications: His tag; TAPBPR luminal domain (mature sequence without 21 aa leader sequence)
In the case of B1, the “OT1 cytotoxic T cell killing of peptide-pulsed EL4 target cells” value was “significant enhancement in killing”.
